Results: article doi:10.1101/2025.09.07.674715

Biological target: GAPS4a of GAPS4^MAVP-R (Vibrio parahaemolyticus MAVP-R) (Vibrio parahaemolyticus MAVP-R)
Assay: SEC-MALS

“GAPS4b of GAPS4^MAVP-R (Vibrio parahaemolyticus MAVP-R) (natural protein)” was tested, and the stoichiometry N (GAPS4b per GAPS4a (2:2)) was 1.
